This note sets out measurements from the nanobody polyreactivity screen of Harvey et al. (2022).

The data set is described as follows: yeast display, Sf9 membrane polyspecificity reagent, FACS + sequencing; frameworks hold sequencing errors. The gist of the method:
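Galactose induction of a Saccharomyces cerevisiae BJ5465 synthetic nanobody display library ran 36–48 hours. The cells were then stained for 1 hour at 4 °C with 10% biotinylated, detergent-solubilized Sf9 membrane reagent, pulled down on streptavidin microbeads and FACS-sorted into low and high (top ~1%) gates on expression and reagent-binding fluorescence. Labels for polyreactivity follow the gate of origin.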
For the sequence “QVQLVESGGGLVQAGGSLRLSCAASGSTFPRYAMGWYRQAPGKERELVAAISSSGRTYYADSVKGRFTISRDNAKNTVYLQMNSLKPEDTAVYYCNAPVARGEASYYWGQGTQVTVSS”, the “polyreactivity (PSR sort gate)” value is “high polyreactivity”.

“QVQLVESGGGLVQAGGSLRLSCAASGRTFRGNAMGWYRQAPGKERELVAAISRRGVSTYYADSVKGRFTISRDNAKNTVYLQMNSLKPEDTAVYYCAVVVYQGFRSKYYYWGQGTQVTVSS”: the “polyreactivity (PSR sort gate)” value is on record as “high polyreactivity”.

Take “QVQLVESGGGLVQAGGSLRLSCAASGIILSENAKGWYRQAPGKERELVAAITSSGSTNYADSVKGRLTISRDNAKNTVYLQMNSLKPVDTAVYYCATQNLYVSWYYAWYGYGYWGQGTQVNVSS”: the “polyreactivity (PSR sort gate)” value is “low polyreactivity”.

As for “QVQLVESGGGLVQAGGSLRLSCDASGSTFSPYAMRWYRQAPGKERELVAAINYSSGSTYYADSVKGRFTISRDNAKNTVYLQMNSLKPEDTAVYYCAYGWYAGYPYDYWGQGTQVTVSS”, the “polyreactivity (PSR sort gate)” value is “low polyreactivity”.

“QVQLVESGGGLVQAGCSLRLSCAASGRTFVHYTMGWYRQAPGKERELVATISTSGGSTSYADSVKGRFTISRDNAKNTVYLQMNSLKPEDTAVYYCAARWYFPDRVKYDYWGQGTQVTVSS”: the “polyreactivity (PSR sort gate)” value is “low polyreactivity”.

“QVQLVESGGGILQAGGSLRLSCAASGFISSVNAMGWYRQATGKERELVAAISDSATSTYYADSVKGRFTISRDNAKNTVYLQMNSLKPVDTALYYCAAYSHYVGYEYWGQGTQVTVSS”: the “polyreactivity (PSR sort gate)” value is listed as “high polyreactivity”.

As to “QVQLVESGGGLVQAGGSLRLSCAASGRIFSLNTMGWYRQAPGKERELVATITKRGGNTYYADSVKGRFTISRDNAKNTVYLQMNSLKPEDTAFYYCAVPRSITYRYGYWGQGTQVTVSS”, the “polyreactivity (PSR sort gate)” value is “high polyreactivity”.

“QVQLHERGDGLVQAVGSLRLSCAASGYISGYYYMGWYRQATGKERELVAGIDALGSSTNYADCVKGRFTISRDNAKNTVYLQMNSLKPEDTAVYYCAARPDGDRLFSYWGQGTQVTVSS”: the “polyreactivity (PSR sort gate)” value is given as “low polyreactivity”.

For “QVQLVESGGGLVQAGGSLRLSCAASGITFQKNAMGWYRKAPGKERELVAGITWRGSTYYADSVKGRFTISRDNAKNTVYLQMNSLKPEDTAVYYCAADPFYWYRSFRGEYWGKGTQVTVSS”, the “polyreactivity (PSR sort gate)” value was “low polyreactivity”.

On to “QVQLVESGGGLVQAGGSLRLSCAASGFTFSDYAMGWYRQAPGKDRELVATISNGDSPYYADSVKGRFTISRDNAKNTVYVQMNSLKPVDTAVNYCATDQPYGADPSNDFDYWGQGTQVTVSS”, for which the “polyreactivity (PSR sort gate)” value is “low polyreactivity”.

As to “QVQLVESGGGLVQAGGSLRLSCPASGSIYASNTMGWYRQAPGKERELVSGITKIGSSTYYADSVKRRFTISRDNAKNTVYLQMNSLKPEDTAVYYCNAYGPTIYSSRYDYWGQGTQVTVSS”, the “polyreactivity (PSR sort gate)” value was “low polyreactivity”.

As for “QVQLVESGGGLVQAGGSLRLSCAASGRIYPYYDMGSYRPAPGKERELVAAITWNGGSTYYADSVKGRFTISRDYAKNTVYLQMNSLKPEDTAVYYCAVEPYYYGEDYWGQGTQVTVSS”, the “polyreactivity (PSR sort gate)” value is reported as “low polyreactivity”.

As for “QGQLVVSGGGLVQAGGSLRLSCAASGSILTRNAMGWYRQAPGKEMELVAAITGSGGRTYYADSVKGRFTISRDNAKKTFYLQMKSLKPEDTAVYYCATRYGREDYWGQGTQVNVSS”, the “polyreactivity (PSR sort gate)” value is “high polyreactivity”.

As for “QVQLEESGGGLVQAGGSLRLSCAASGFTFSYYAMGWYRQATGKERELVAAITSSAGSTYYADSVKGRFTISRDYAKNSFYLQMTSLKPEDTEVYYCYAVYSKLNGGYDYWGQGTQVTVSS”, the “polyreactivity (PSR sort gate)” value is on record as “low polyreactivity”.

With “QVQLVESGGGLVQAGGSLRLSCAASGSIFGKYAMGWYRQAPGKERELVAAISYSGGSTYYADSVKGRFTISRDNAKNTVYLQMNSLKPEDTAVYYCAVRGWGSAGKYDYWGQGTQVTVSS”, the “polyreactivity (PSR sort gate)” value is “high polyreactivity”.

In the case of “KVQLVESGGRVVQAGGSLRLSCAASGSIFGYNDMGWYRPAPGKERELVATITWGGGRTRYADSVKGRFTISRDNAKKTVYLQMNSLKPEETAVYYCARDRGKITPYDYWGQGTQVTVSS”, the “polyreactivity (PSR sort gate)” value was “low polyreactivity”.

With “QVQLQESGGGLVQGGGSLRLSCAASGSNYRSWYMGWYRQAPGKERELVASITEGATTNYAYSVKAALPLAAITRNSVYRQMDSMKPEDTAVYYRGASFGSTYDLVYWGQGTQVTVSS”, the “polyreactivity (PSR sort gate)” value was “high polyreactivity”.

For “QVQLVESGGGLVQAGGSLRLSCAASGRTFSVYTMGWYRQAPGKERELVASISRSGGRTYYADSVKGRFTISRDNAKNTVYLQMNSLKPADTAVYYCAARWYSASALKYYYWGQGTQVTVSS”, the “polyreactivity (PSR sort gate)” value is “high polyreactivity”.

For “QVQLVESGGGLVQAGGSLRLSCDASGNTFGSYAMGWYGQAPGKEREVVASISGGGSTNYADSVKGRFTISRDNATNTVYLQMNSLKPEDTAVYDCAPRYYYRYYWRQGTQVTVSS”, the “polyreactivity (PSR sort gate)” value is “low polyreactivity”.

Regarding “QVQLVESGGGLVQAGGSLRLSCAASGRSIYRNAMGWYRQAPGKERELVAAISGRGGGTYYADSVKGRFTLSRDNAKNTVYLQMNSVKPEETAVYYCAAERKNKYDYWGQGTQVTVSS”, the “polyreactivity (PSR sort gate)” value is “high polyreactivity”.

For the sequence “QVQLVESGGGLVQAGGSLRLSCASSGNTFYGYAMGWYRQAPGKERELVASITLSGDSTYYADSVKGRFTISRDNAKNTVYLQMNSLKPEDTAVYYCAGVYTYPLGYYHYTYDYWGQGTQVTVSS”, the “polyreactivity (PSR sort gate)” value was “low polyreactivity”.

In the case of “QVQLVEAGGGLVQAGGSLRLSCAASGRTLYPYAMGWYRQAPGKERELVAAISSRGGSTYYADSVKGRFTISRDNAKNTVYLQMNSLKPEDTAVYYCAKSYRKILSITGLVPWTDYFWGQGTQVTVSS”, the “polyreactivity (PSR sort gate)” value is “low polyreactivity”.

In the case of “QVQLVESGGGLVQAGGSLRLSCAASGRTLASYGMGWYRQAPGKERELVAAISSRGGTTYYADSVKGRFTISRDNAKNTVYLQMNSLKPEDTAVYYCAKPGRYWGQGTQVTVSS”, the “polyreactivity (PSR sort gate)” value is reported as “high polyreactivity”.

With “QVQLVETGGGLVQAGGSLRLSCAPSGRTLSYYAMGWYIQAPGKERELVAAIRHSAGSTYYADSVKVRFTISRDNAKNTVYLQMISLKPEDTAVYYCAKKYYGHRYPSIYDYWGQGTQVTVSS”, the “polyreactivity (PSR sort gate)” value is “high polyreactivity”.

Turning to “QVQMQESGGGLVLAGGSLRLSCASSGSISAQAYMGWDRQAPGKEREHVAGINYGDNTNYADSVKGRFTISRDNEHRVSADEQPETGRYRGVLLRGFLELFYYYIYWGQGTQVTVSS”, the “polyreactivity (PSR sort gate)” value is “high polyreactivity”.

Regarding “QDQLVESGGGLVQAGGSLRLSCAASGSTFPRYAMGWSRQAPGKERELVAAISSSGRTYYADSVKGRFTISRDNEKNTVYLQMNSLKPEDTAVYYCNAYPVFRSYDYWGQGTQVTVSS”, the “polyreactivity (PSR sort gate)” value is listed as “high polyreactivity”.

Take “QVQLVESGGGLVQAGGSLRVSCAASGSTFGTYGMGWYRPAPGKERELVADITSGGSTYYADSVKGRFTISRDNAKNTVYLQMNSLTPEDTAVYYCAASWFVWSTAVPYDYWGQGTQVTVSS”: the “polyreactivity (PSR sort gate)” value is on record as “low polyreactivity”.

With “QVQLVESGGGVVQAGGSLRLSCAASGRIFVSYAMGWYRQAPGKERELVASISGRGGSTYYADSVKGRFTISRDNAKNTVELQMNSLKPEDTAVYYCNKVARTRRITTYDYWGQGTQVTVSS”, the “polyreactivity (PSR sort gate)” value is on record as “high polyreactivity”.

Regarding “QVQLVESGGGLVQAGGSLRLSCAASGLISIFYTMGWYRQAPGKERELVAAITSGGSSTYYADSVKGRFTISRDNAKNTVYLQMNCLIPVDTAVYYCAAEPGFYYYWGQGTQVTVSS”, the “polyreactivity (PSR sort gate)” value is given as “low polyreactivity”.

As for “QVQLVESGGGLVQAGGSLRISCAASGFISYYYAMGWYRQAPGKERELVAAITKSGGSTYYADSVKGRFTISRDNAKNTVYLQMNSLKPDDTAVYYCAADRSTRNSTSRLYGYWGQGTQVTVSS”, the “polyreactivity (PSR sort gate)” value is recorded as “low polyreactivity”.

Take “QVQHVESGGGLVQAGGSLRLRCAASGSIFYINAMGWYRQAPGQERELVAAITSDGSTYYADSVKGRFTISGDNAKNSVYLQINSLKPEDTAVYYCAADLTSDQYVYYWYWFYSWGQGTQVTVSS”: the “polyreactivity (PSR sort gate)” value is recorded as “low polyreactivity”.

Turning to “QVQLVESGGGLVQAGGSLRLSCAASGFTFRGYAMGWYRQAPGKERELVAAIRRGVGSTYYADSVKGRFTISRDNAKNTVYLQMTSLKPEDTAVYYCNKDNAVDRLPWFQVTYDYWGQGTQVTVSS”, the “polyreactivity (PSR sort gate)” value is on record as “low polyreactivity”.

As to “QVQLVESGGGLGQAGGSLRLSCAASGRIFRYNAMGWYRQAPGKERELVAAITSGTGTNYADSVKGRFTISRDNAKNTVYLQMNSLKPEDTAVYYCNKVRKSYRYDYWGQGTQVTVSS”, the “polyreactivity (PSR sort gate)” value is “low polyreactivity”.

Turning to “QVQLVESGGGLVQAGGSLRLSCAASGLTFSRYAMGWYRQAPGKERELVAAITSIGGSTYYADSVKGRFTISRDNAKNTVYLQMNSLKPEDTAVYYCRAFFRRDYWGQGTQVTVSS”, the “polyreactivity (PSR sort gate)” value is on record as “high polyreactivity”.

Turning to “QVQLVESGGGLVQAGGSLRLSCAASGRTYRAYTMGWYRQAPGKERELVAAISTPGGSTYYADSVKGRFTISRDNAKKTVYLQMIILKPEDNAVYYCAAGTFYYWLSYDYWGQGTKVTVSS”, the “polyreactivity (PSR sort gate)” value is listed as “low polyreactivity”.

In the case of “QVQLVESGGVLVQAGGSLRLSCAASGYIFSLNGMGWYRQAPGKERELVAAITVSGGRTYYADSVKGRFTISRDNAKNTVYLQMNSLKPEDTAVYYCAKRGKYSYWPYYKYDYWGQGTQVTVSS”, the “polyreactivity (PSR sort gate)” value is on record as “high polyreactivity”.

With “QVQLVESGGGLVKAGGSLRLSSAATGSTFWEYVMGWYRQPPGKERELVAAITTNDDSTYYADSVKGRFTISRDNAKKTVYLQMNSLKPEDTAVYYCNADQITGQFDYWGQGTQVTVSS”, the “polyreactivity (PSR sort gate)” value is on record as “low polyreactivity”.

Take “QVQLGESGGGLVQAGGSLRLSCAASGSTFTSYAMGGSRQAPGKERELVAAITHRGSTNYADSVKGRFTISRDNAKYTVDLQMNSLKPEDTAVYYCNARYATSVLYDYWRQGTQVTVSS”: the “polyreactivity (PSR sort gate)” value was “high polyreactivity”.

Take “QVQLVESGGGLVQEGGSLRLSCAASGSTFSSYAMGWYRQAPGKERELVAAISWSGGSTYYADSVKGRFTISRDNAKNTVYLQMISLKPEDTAVYYCAAYTYSFRANHDYWGQGTQVTVSS”: the “polyreactivity (PSR sort gate)” value is recorded as “high polyreactivity”.

In the case of “QVQLVESGGGLVQAGGSLRLSCAASGSTFTYNAMGWYRQAPGTERELVAAISDGDGRTYYADSVKGRFTISRDNAKNTVYLQMNSLKPEDTAVYYCAAVDYAADYPYRNTEVYYWGQGTQVTVSS”, the “polyreactivity (PSR sort gate)” value is “low polyreactivity”.

With “QVQLVESGGGLVQAGGSLRLSCAASGSTLYVYAMGWYRQAPGKERELVAAITRGSRTSYADSVKGRFTISRDNAKNTVYLQMNSLKPEDTAVYYCNADTILWFLPPQKRDYWGQGTQVTVSS”, the “polyreactivity (PSR sort gate)” value is “low polyreactivity”.
